Measured values taken from patent US20260242485A1.

Tests used:
[1] = target: human CD16B-NA1 expressed on CHO-K1 cells (human) (UniProt O75015); assay: flow cytometry, CHO-K1-hCD16B-NA1 cells, geometric mean
[2] = target: human CD32B expressed on CHO-K1 cells (human) (UniProt P31994); assay: flow cytometry, CHO-K1-hCD32B cells, geometric mean
Sequence of human CD32B expressed on CHO-K1 cells (human) (P31994 43-310): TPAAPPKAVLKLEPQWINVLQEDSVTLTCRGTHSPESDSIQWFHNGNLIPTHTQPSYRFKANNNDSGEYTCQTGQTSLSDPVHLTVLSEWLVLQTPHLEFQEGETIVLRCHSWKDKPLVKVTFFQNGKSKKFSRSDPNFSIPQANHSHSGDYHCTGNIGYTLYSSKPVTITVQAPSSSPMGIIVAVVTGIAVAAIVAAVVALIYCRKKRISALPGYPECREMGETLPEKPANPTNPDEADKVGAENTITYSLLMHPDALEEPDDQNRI

Sequence of human CD16B-NA1 expressed on CHO-K1 cells (human) (O75015 other isoform, or with tags, fused parts or gaps): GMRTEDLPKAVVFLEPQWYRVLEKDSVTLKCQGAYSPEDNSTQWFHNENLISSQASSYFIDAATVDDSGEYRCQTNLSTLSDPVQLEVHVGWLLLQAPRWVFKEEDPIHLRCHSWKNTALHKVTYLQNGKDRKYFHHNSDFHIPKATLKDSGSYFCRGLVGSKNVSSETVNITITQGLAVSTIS

| Substance | EC50 (read off the curve) [1] | EC50 (read off the curve) [2] |
| --- | --- | --- |
| 3G8-mIgG2aLALAPG (antibody) | 0.1 to 1 nM |  |
| Positive control (3G8) (antibody) | 0.1 nM |  |
| Positive control (6G11) (antibody) |  | 0.1 nM |
